Article PMC4191399
Residue numbers refer to the chain shown, from its start. pKd: −log10 of the molar value.

Key:
Assay in all cases: fluorescence polarization
Details in all cases: internal 6-carboxyfluorescein in backbone between U12 and C13 (central tetraloop bases); 25 mM MOPS pH 7.4, 150 mM KCl, 2 mM DTT, 2 mM MgCl2, 0.01% Triton X-100, 1 nM RNA, room temperature, 1 h
RIG-I WT (Homo sapiens) = molecular target: T1, RIG-I WT (Homo sapiens) (UniProt O95786)
T1 sequence: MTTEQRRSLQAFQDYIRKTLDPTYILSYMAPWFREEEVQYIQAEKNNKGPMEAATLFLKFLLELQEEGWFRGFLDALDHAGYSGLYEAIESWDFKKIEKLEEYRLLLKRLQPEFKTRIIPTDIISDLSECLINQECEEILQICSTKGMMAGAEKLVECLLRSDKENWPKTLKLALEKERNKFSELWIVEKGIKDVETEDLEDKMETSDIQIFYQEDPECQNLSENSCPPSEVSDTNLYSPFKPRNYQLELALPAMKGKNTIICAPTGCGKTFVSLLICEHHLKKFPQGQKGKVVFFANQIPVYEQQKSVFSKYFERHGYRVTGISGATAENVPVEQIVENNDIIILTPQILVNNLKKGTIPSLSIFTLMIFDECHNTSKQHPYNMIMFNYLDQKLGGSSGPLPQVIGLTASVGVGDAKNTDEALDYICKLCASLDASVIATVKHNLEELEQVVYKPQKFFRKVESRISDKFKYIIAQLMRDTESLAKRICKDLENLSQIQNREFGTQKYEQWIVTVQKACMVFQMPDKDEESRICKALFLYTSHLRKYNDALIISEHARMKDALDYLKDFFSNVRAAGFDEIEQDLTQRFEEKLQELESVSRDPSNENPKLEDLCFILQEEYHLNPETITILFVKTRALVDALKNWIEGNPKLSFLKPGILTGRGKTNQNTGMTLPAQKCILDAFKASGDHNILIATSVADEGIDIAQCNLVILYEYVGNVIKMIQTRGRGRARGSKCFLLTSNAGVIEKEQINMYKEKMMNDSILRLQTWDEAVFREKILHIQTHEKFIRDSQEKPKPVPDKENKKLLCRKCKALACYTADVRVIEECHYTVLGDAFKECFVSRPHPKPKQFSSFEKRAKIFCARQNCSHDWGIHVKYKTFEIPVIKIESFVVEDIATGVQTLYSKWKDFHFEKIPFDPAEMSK

[1] = molecular target: T2, RIG-I Q784A Q784A (Homo sapiens) (UniProt O95786)
T2 sequence: T1 sequence with Q784A

[2] = molecular target: T3, RIG-I Q784A/K788A/R791A Q784A;K788A;R791A (Homo sapiens) (UniProt O95786)
T3 sequence: T1 sequence with Q784A, K788A, R791A

Sequence: GGACGUACGUUUCGACGUACGUCC [5'OH10L-F]
- pKd (RIG-I WT (Homo sapiens)): 7.60
- pKd [1]: 7.62
- pKd [2]: 6.76
